Assay results as given in article PMC10838295.

Biological target: pyrrolated BSA (pyrBSA), P02769
Experiment: ELISA
Details: chain shown with the change, left panel, antigen pyrBSA, read off a plot

Sequence of pyrrolated BSA (pyrBSA), P02769 (P02769 25-607): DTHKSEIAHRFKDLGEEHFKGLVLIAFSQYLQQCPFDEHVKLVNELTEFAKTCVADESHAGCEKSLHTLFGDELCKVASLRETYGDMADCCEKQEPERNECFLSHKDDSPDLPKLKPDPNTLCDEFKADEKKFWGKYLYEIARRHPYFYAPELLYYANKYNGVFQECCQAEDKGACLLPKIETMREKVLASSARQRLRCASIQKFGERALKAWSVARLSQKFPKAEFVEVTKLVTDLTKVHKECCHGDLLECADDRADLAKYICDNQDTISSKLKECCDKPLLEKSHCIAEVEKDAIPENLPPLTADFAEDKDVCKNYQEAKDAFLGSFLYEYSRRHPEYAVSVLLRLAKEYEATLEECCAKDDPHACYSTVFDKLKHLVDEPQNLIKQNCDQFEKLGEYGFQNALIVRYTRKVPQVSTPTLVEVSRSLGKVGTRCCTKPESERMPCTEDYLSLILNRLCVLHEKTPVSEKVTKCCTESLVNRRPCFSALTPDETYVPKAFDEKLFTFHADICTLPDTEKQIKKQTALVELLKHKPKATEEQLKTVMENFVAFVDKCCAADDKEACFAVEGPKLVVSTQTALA

B1: VH DO1 (VH-His6 of scFv DO1) R97A (protein)
chain: EVQLQQSGPELVKPGASVKMSCKASGYTFTSYVMHWVKQKPGQGLEWIGYINPHNDGTKYNEKFKGKATLTSDKSSSTAYMELSSLTSEDSAVYYCARKLAGFAYWGQGTLVTVSS
response (VH about 6.4 nM (4th point of the titration, read from the log x axis), parent: est. 1.7): 0.65 Abs (490 nm) | response (VH about 16 nM (5th point of the titration, read from the log x axis), parent: est. 3.1): 1.9 Abs (490 nm)
